For this experiment, the target named is wild type human norepinephrine transporter (human) (UniProt P23975). Nature of the experiment: cell-based or functional assay.

Turning to “human norepinephrine transporter A457P mutant (from UniProt P23975 1-617)”, the [3H]NE uptake on cotransfection (% of wt alone) was found to be 59.

Source of the values: US20030170875A1.
